Measured values as given in the supplement of paper PMC10567573.

B1: PI4K2A (parent)
chain: FVKDPQGRIIAVFKPKNEEPYGHL

Variants of: B1
Assay: protein stability index of a GFP-peptide fusion (GPS, HEK-293T) (PSI 1-6); higher = more stable
Conditions: c terminus: a fixed tail appended
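Also: lentivirally expressed fusions sorted by FACS into six bins by GFP to DsRed ratio, PSI derived from sequencing read proportions per bin multiplied by bin number.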

Row | Variant | protein stability index
1 | FVKDPQGRIIAVFKPWNEEPYGHL [K16W] | 2.23
2 | FVKDPQGRIIAVFKPYNEEPYGHL [K16Y] | 2.44
3 | FVKDPQGRIIAVFKPKNEEPDGHL [Y21D] | 1.85
4 | FVKDPQGRIIAVFKPKNEEPRGHL [Y21R] | 2.11
5 | FVKDPQGRIIAVFKPKNEEPAGHL [Y21A] | 1.57
6 | FVKDPQGRIIAVFKPKNEEPGGHL [Y21G] | 1.65
7 | FVKDPQGRIIAVFKPKNEEPFGHL [Y21F] | 2.21
8 | FVKDPQGRIIAVFKPKNEEPKGHL [Y21K] | 2.04
9 | FVKDPQGRIIAVFKPKNEEPLGHL [Y21L] | 2.85
10 | FVKDPQGRIIAVFKPKNEEPTGHL [Y21T] | 1.74
11 | FVKDPQGRIIAVFKPKNEEPIGHL [Y21I] | 2.91
12 | FVKDPQGRIIAVFKPKNEEPWGHL [Y21W] | 2.26
13 | FVKDPQGRWIAVFKPKNEEPYGHL [I9W] | 2.5
14 | FVKDPQGRDIAVFKPKNEEPYGHL [I9D] | 3.44
15 | FVKDPQGRQIAVFKPKNEEPYGHL [I9Q] | 1.67
16 | FVKDPQGRKIAVFKPKNEEPYGHL [I9K] | 2.63
17 | FVKDPQGRVIAVFKPKNEEPYGHL [I9V] | 2.56
18 | FVKDPQGRCIAVFKPKNEEPYGHL [I9C] | 1.85
19 | FVKDPQGRNIAVFKPKNEEPYGHL [I9N] | 4.29
20 | FVKDPQGHIIAVFKPKNEEPYGHL [R8H] | 1.93
21 | FVKDPQGQIIAVFKPKNEEPYGHL [R8Q] | 1.92
22 | FVKDPQGFIIAVFKPKNEEPYGHL [R8F] | 2.27
23 | FVKDPQGAIIAVFKPKNEEPYGHL [R8A] | 2.51
24 | FVKDPQGMIIAVFKPKNEEPYGHL [R8M] | 2.87

Row | Variant | protein stability index
25 | FVKDPQGEIIAVFKPKNEEPYGHL [R8E] | 1.98
26 | FVKDPQGIIIAVFKPKNEEPYGHL [R8I] | 2.72
27 | FVKDPQGYIIAVFKPKNEEPYGHL [R8Y] | 1.6
28 | FVKQPQGRIIAVFKPKNEEPYGHL [D4Q] | 2.74
29 | FVKAPQGRIIAVFKPKNEEPYGHL [D4A] | 2.86
30 | FVKLPQGRIIAVFKPKNEEPYGHL [D4L] | 1.11
31 | FVKHPQGRIIAVFKPKNEEPYGHL [D4H] | 1.12
32 | FVKYPQGRIIAVFKPKNEEPYGHL [D4Y] | 2.06
33 | FVKEPQGRIIAVFKPKNEEPYGHL [D4E] | 1.49
34 | FVKDPQGRIIAVFKPKNMEPYGHL [E18M] | 2.08
35 | FVKDPQGRIIAVFKPKNHEPYGHL [E18H] | 1.62
36 | FVKDPQGRIIAVFKPKNQEPYGHL [E18Q] | 1.8
37 | FVKDPQGRIIAVFKPKNIEPYGHL [E18I] | 2.22
38 | FVKDPQGRIIAVFKPKNAEPYGHL [E18A] | 2.39
39 | FVKDPQGRIIAVFKPKNYEPYGHL [E18Y] | 2.98
40 | FVKDPQGRIIAVFKPKNKEPYGHL [E18K] | 2.04
41 | FVKDPQGRIIAVFKPKNPEPYGHL [E18P] | 1.79
42 | FVKDPQGRIIAVFKPKNFEPYGHL [E18F] | 1.96
43 | FVKDPQGRIIAVFKPKNNEPYGHL [E18N] | 1.48
44 | FVKDPQGRIIAVFKPKNLEPYGHL [E18L] | 3.88
45 | FVKDPQGRIIAVFKPKNESPYGHL [E19S] | 1.71
46 | FVKDPQGRIIAVFKPKNERPYGHL [E19R] | 1.34
47 | FVKDPQGRIIAVFKPKNEVPYGHL [E19V] | 1.73
48 | FVKDPQGRIIAVFKPKNEHPYGHL [E19H] | 2.1

Row | Variant | protein stability index
49 | FVKDPQGRIIAVFKPKNETPYGHL [E19T] | 2.09
50 | FVKDPQGRIIAVFKPKNEGPYGHL [E19G] | 1.67
51 | FVKDPQGRIIAVFKPKNEYPYGHL [E19Y] | 1.73
52 | FVKDPQGRIIAVFKPKNEFPYGHL [E19F] | 1.52
53 | FVKDPQGRIIAVFKPKNEPPYGHL [E19P] | 1.78
54 | FVKDPQGRIIAVFKPKNECPYGHL [E19C] | 2.52
55 | FVKDPQGRIIAVFKPKNENPYGHL [E19N] | 1.91
56 | FVKDPQGRIIAVFKPKNELPYGHL [E19L] | 2.34
57 | FVKDPQGRIIAVFKPKNEAPYGHL [E19A] | 1.58
58 | FVKDPQGRIIAVFKPKQEEPYGHL [N17Q] | 1.97
59 | FVKDPQGRIIAVFKPKAEEPYGHL [N17A] | 2.52
60 | FVKDPQGRIIAVFKPKCEEPYGHL [N17C] | 2.31
61 | FVKDPQGRIIAVFKPKSEEPYGHL [N17S] | 1.64
62 | FVKDPQGRIIAVFKPKGEEPYGHL [N17G] | 1.48
63 | FVKDPQGRIIAVFKPKYEEPYGHL [N17Y] | 1.68
64 | FVKDPQGRIIAVFKPKTEEPYGHL [N17T] | 1.92
65 | FVKDPQGRIIAVFKPKDEEPYGHL [N17D] | 1.84
66 | FVKDPQGRIIAVFKPKPEEPYGHL [N17P] | 2
67 | FVKDPQGRIIAVFKPKWEEPYGHL [N17W] | 2.41
68 | FVKDPQGRIIAVFKPKNEEPYKHL [G22K] | 2.44
69 | FVKDPQGRIIAVFKPKNEEPYMHL [G22M] | 2.1
70 | FVKDPQGRIIAVFKPKNEEPYYHL [G22Y] | 1.48
71 | FVKDPQGRIIAVFKPKNEEPYVHL [G22V] | 1.55
72 | FVKDPQGRIIAVFKPKNEEPYFHL [G22F] | 1.81

Row | Variant | protein stability index
73 | FVKDPQGRIIAVFKPKNEEPYNHL [G22N] | 1.73
74 | FVKDPQGRIIAVFKPKNEEPYTHL [G22T] | 1.41
75 | FVKDPQGRIIAVFKPKNEEPYLHL [G22L] | 2.03
76 | FVKDPQGRIIAVFKPKNEEPYGDL [H23D] | 2.39
77 | FVKDPQGRIIAVFKPKNEEPYGSL [H23S] | 1.36
78 | FVKDPQGRIIAVFKPKNEEPYGGL [H23G] | 2.6
79 | FVKDPQGRIIAVFKPKNEEPYGRL [H23R] | 1.79
80 | FVKDPQGRIIAVFKPKNEEPYGWL [H23W] | 1.83
81 | FVKDPQGRIIAVFKPKNEEPYGCL [H23C] | 1.94
82 | FVKDPQGRIIAVFKPKNEEPYGPL [H23P] | 2.47
83 | FVKDPQGRIIAVFKPKNEEPYGVL [H23V] | 2.28
84 | FVKDPQGRIIAVFKPKNEEPYGQL [H23Q] | 1.56
85 | FVKDPQGRIIAVFKPKNEEPYGFL [H23F] | 1.27
86 | FVKDPQGRIIAVFKPKNEEPYGIL [H23I] | 2.38
87 | FVKDPQGRIIAVFKPKNEEWYGHL [P20W] | 2.05
88 | FVKDPQGRIIAVFKPKNEEQYGHL [P20Q] | 1.7
89 | FVKDPQGRIIAVFKPKNEELYGHL [P20L] | 1.55
90 | FVKDPQGRIIAVFKPKNEEHYGHL [P20H] | 1.74
91 | FVKDPQGRIIAVFKPKNEEMYGHL [P20M] | 2.65
92 | FVKDPQGRIIAVFKPKNEEKYGHL [P20K] | 1.2
93 | FVKDPQGRIIAVFKPKNEECYGHL [P20C] | 1.78
94 | FVKDPQGRIIAVFKPKNEEFYGHL [P20F] | 1.94
